Test results reported in patent US8889130B2, “Treatment of osteoarthritis and pain” (Abbvie Inc., priority 2011, dated 2014).

B1: DVD1-Ig: DVD-Ig binding hIL-1α and hIL-1β; VH/VL of 13F5.G5 fused directly to N-terminus of 3D12.E3 VH/VL, no linker (antibody)
VH: MQLSGLTSEDSAMYFCVRFPTGNDYYAMDYWGQGTSVTVSSQIQLVQSGPELKKPGETVKISCKASGYTFRNYGMNWVKQAPGKDLKRMAWINTYTGESTYADDFKGRFAFSLETSASTAYLQINNLKNEDTATYFCARGIYYYGSSYAMDYWGQGTSVTVSS
VL: PVEADDAATYYCQQNNEDPFTFGSGTKLEIKRNIQMTQTTSSLSASLGDRVTISCRASQDISNCLNWYQQKPDGTVKLLIYYTSRLHSGVPSRFSGSGSGTDYSLTISNLEQEDIATYFCQQGKTLPYAFGGGTKLEINRR
B2: DVD2-Ig: DVD-Ig as DVD1-Ig but with linkers ADAAP (light chain) and AKTTPP (heavy chain) (antibody)
VH: MQLSGLTSEDSAMYFCVRFPTGNDYYAMDYWGQGTSVTVSSAKTTPPQIQLVQSGPELKKPGETVKISCKASGYTFRNYGMNWVKQAPGKDLKRMAWINTYTGESTYADDFKGRFAFSLETSASTAYLQINNLKNEDTATYFCARGIYYYGSSYAMDYWGQGTSVTVSS
VL: PVEADDAATYYCQQNNEDPFTFGSGTKLEIKRADAAPNIQMTQTTSSLSASLGDRVTISCRASQDISNCLNWYQQKPDGTVKLLIYYTSRLHSGVPSRFSGSGSGTDYSLTISNLEQEDIATYFCQQGKTLPYAFGGGTKLEINR

Tests used:
[1] = Size exclusion chromatography (SEC): physical homogeneity and in vitro stability; type: physicochemical; details: for Ab (intact antibody) / Agg (aggregates) / Frgm (fragments): 0.2-0.4 mg/ml in PBS; for Ab (intact antibody) / Agg (aggregates) / Frgm (fragments) / aggregation and fragmentation in stability analysis: SEC; for aggregation and fragmentation in stability analysis: PBS, freeze-thaw, 4, 25, 40° C. for 4 and 8 weeks; for SEC profile of purified protein (physical homogeneity): purified protein in PBS
Description: For measuring molecular weight (MW) of light and heavy chains of DVD-Ig binding protein, 10 μL of DVD-Ig molecule (0.8 μg/μL) was reduced by 1.0 M DTT solution (5 μL). A PLRP-S, 8μ, 4000 A, and 1×150 mm protein column (Michrom BioResource, Auburn, Mass.) was used to separate heavy and light chains of DVD-Ig molecule. Agilent HP1100 Capillary HPLC (Agilent Technologies Inc., Pala Alto, Calif.) was used with the mass spectrometer QSTAR (Applied Biosystems, Foster City, Calif.). The valco valve was set at 10 minutes to switch the flow from waste to MS for desalting sample. Buffer A was 0.02% TFA, 0.08% FA, 0.1% ACN and 99.8% HPLC-H2O. Buffer B contained 0.02% TFA, 0.08% FA, 0.1% HPLC-H2O, and 99.8% ACN. The HPLC flow rate was 50 μL/minute and the sample injection volume was […]. The temperature of the column oven was set at 60° C., and separation gradient was: 5% B for 5 minutes; 5% B to 65% B for 35 minutes; 65% B to 95% B for another 5 minutes, and 95% B to 5% B for 5 minutes. TOFMS scan was from 800 to 2500 amu, and cycles were 3600. To determine the MW of full length DVD-Ig binding protein, a Protein MicroTrap cartridge (Michrom BioResource, Auburn, Mass.) was used for desalting the sample. The HPLC gradient was: 5% B for 5 minutes; 5% B to 95% B in 1 minute; and from 95% B to 5% B in another 4 minutes. The QSTAR TOFMS scan was from 2000 to 3500 amu, and cycles were 899. All MS raw data were analyzed using the Analyst QS software (Applied Biosystems). For SEC analysis of the DVD-Ig binding protein, purified DVD-Ig binding protein and chimeric Abs, in PBS, were applied on a Superose 6 10/300 G2, 300×10 mm column (Amersham Bioscience, Piscataway, N.J.). An HPLC instrument, Model 10A (Shimadzu, Columbia, Md.) was used for SEC. All proteins were determined using UV detection at 280 nm and 214 nm. The elution was isocratic at a flow rate of 0.5 mL/minute. For stability study, samples in the concentration range of 0.2-0.4 mg/ml in PBS underwent 3 freeze-thaw cycles between −80° C. and 25° C., or were incubated at 4° C., 25° C., or 40° C., for 4 weeks and 8 weeks, followed by SEC analysis.
In order to determine the precise molecular weight of the DVD-Ig binding proteins, mass spectrometry was employed. […] To further study the physical properties of DVD-Ig binding protein in solution, size exclusion chromatography (SEC) was used to analyze each protein.
The physical stability of DVD-Ig was tested as follows. Purified antibodies in the concentration range of 0.2-0.4 mg/ml in PBS underwent 3 freeze-thaw cycles between −80° C. and 25° C., or were incubated at 4° C., 25° C., or 40° C., for 4 weeks and 8 weeks, followed by analysis using size exclusion chromatography (SEC) analysis (see Table 12).

both IL-1α and IL-1β = assay: MRC-5 assay in the presence of both IL-1α and IL-1β (IL-8 synthesis); type: cell-based, human; details: equal amounts of hIL-1α and hIL-1β in the same culture; read-out: dual-inhibition activity (IL-8 synthesis by MRC-5 cells)
Description: The biological activity of DVD-Ig was measured using MRC-5 bioassay. The MRC-5 cell line is a human lung fibroblast cell line that produces IL-8 in response to human IL-1α and IL-1β in a dose-dependent manner. MRC-5 cells were obtained from ATCC and cultured in 10% FBS complete MEM at 37° C. in a 5% CO2 incubator. To determine neutralizing activity of the DVD-Ig against human IL-1α or IL-1β, 50 μl of antibody (1×10^−7 to 1×10^−12 M) in MEM/10% FBS was added to a 96 well plate and pre-incubated with 50 μl of hIL-1α or hIL-1β (200 pg/ml) for 1 hour at 37° C., 5% CO2. MRC-5 cells at a concentration of 1×10^5/ml were then added (100 μl) to all wells, and the plates were incubated overnight at 37° C. in a 5% CO2 incubator. The supernatants were harvested and human IL-8 production measured by standard ELISA (R&D Systems, Minneapolis, Minn.). Neutralizing activity of the DVD-Ig binding protein was determined by its ability to inhibit IL-8 production.
To determine if DVD-Ig binding protein was able to inhibit IL-8 production in the presence of both IL-1α and IL-1β, equal amounts of hIL-1α and hIL-1β were added in the same culture system of MRC-5 assay. […]

[2] = 3xFreeze-Thaw between −80° C. and 25° C.

Row | Molecule | Ab (intact antibody) [1, 2] [percentage] | Agg (aggregates) [1, 2] [percentage] | Frgm (fragments) [1, 2] [percentage] | Ab (intact antibody) ([1]; 4° C. @ 4 Wks) [percentage] | Agg (aggregates) ([1]; 4° C. @ 4 Wks) [percentage] | Frgm (fragments) ([1]; 4° C. @ 4 Wks) [percentage] | Ab (intact antibody) ([1]; 4° C. @ 8 Wks) [percentage] | Agg (aggregates) ([1]; 4° C. @ 8 Wks) [percentage] | Frgm (fragments) ([1]; 4° C. @ 8 Wks) [percentage] | Ab (intact antibody) ([1]; 25° C. @ 4 Wks) [percentage] | Agg (aggregates) ([1]; 25° C. @ 4 Wks) [percentage] | Frgm (fragments) ([1]; 25° C. @ 4 Wks) [percentage] | Ab (intact antibody) ([1]; 25° C. @ 8 Wks) [percentage] | Agg (aggregates) ([1]; 25° C. @ 8 Wks) [percentage] | Frgm (fragments) ([1]; 25° C. @ 8 Wks) [percentage] | Ab (intact antibody) ([1]; 40° C. @ 4 Wks) [percentage] | Agg (aggregates) ([1]; 40° C. @ 4 Wks) [percentage] | Frgm (fragments) ([1]; 40° C. @ 4 Wks) [percentage] | Ab (intact antibody) ([1]; 40° C. @ 8 Wks) [percentage] | Agg (aggregates) ([1]; 40° C. @ 8 Wks) [percentage] | also measured
1 | B1 | 53.50 | 46.50 | 0.00 | 56.63 | 42.43 | 0.94 | 56.91 | 38.18 | 4.91 | 54.34 | 45.66 | 0.00 | 67.39 | 24.42 | 8.19 | 59.42 | 36.70 | 3.88 | 67.16 | 20.55 | Frgm (fragments) ([1]; 40° C. @ 8 Wks): 12.29 percentage; aggregation and fragmentation in stability analysis [1]: showed aggregations in PBS under different conditions; SEC profile of purified protein (physical homogeneity) [1]: a major peak as well as a shoulder peak on the right; IC50 (both IL-1α and IL-1β): 2.2 nM
2 | B2 | 100.0 | 0.0 | 0.0 | 100.0 | 0.0 | 0.0 | 100.0 | 0.0 | 0.0 | 100.0 | 0.0 | 0.0 | 100.0 | 0.0 | 0.0 | 100.0 | 0.0 | 0.0 | 100.0 | 0.0 | Frgm (fragments) ([1]; 40° C. @ 8 Wks): 0.0 percentage; aggregation and fragmentation in stability analysis [1]: Neither aggregation nor fragmentation was detected; maintained as intact monomeric molecule ([1]; all conditions tested (freeze-thaw; 4, 25, 40° C. for 4 and 8 weeks)): 100%; SEC profile of purified protein (physical homogeneity) [1]: a single peak; IC50 (both IL-1α and IL-1β): 1.2 nM
